Source: US20180321243A1 (UNIVERSITY OF SASKATCHEWAN, published 2018)

Key:
[1] = molecular target: T1, bovine serum albumin (BSA) (bovine, UniProt P02769 25-607); test: phage ELISA, scFv displayed on M13 phage, BSA negative control, duplicate 2
T1 construct: Negative control / background protein in the phage ELISA
Experimental: (§1) A phage-based ELISA was performed as a semi-quantitative approach to initially validate scFv binding to ADAM10. ADAM10 was adsorbed to ELISA plates and purified phage displaying each of the scFv clones was tested for a binding signal compared to a negative control bovine serum albumin (BSA) protein.
(§2) Similar to the phage display screening methodology, ADAM10 was adsorbed to NUNC MaxiSorp Immunoplates and subsequently incubated with ˜10¹² purified phage displaying an scFv clone. An anti-phage-horseradish peroxidase secondary antibody was then used to generate binding signals for each clone in duplicate, which was measured by colour development at an optical density of 450 nm (O.D. 450 nm) using a tetramethylbenzidine substrate (ThermoScientific, #34028).

[2] = molecular target: T1, bovine serum albumin (BSA); test: phage ELISA, scFv displayed on M13 phage, BSA negative control, duplicate 1
Experimental: as §1, §2

[3] = molecular target: T2, recombinant human ADAM10 (Biomatik, #RPU140010) (human, UniProt O14672 214-672, limits assumed); test: BLI (Octet RED384), unlabeled scFv coupled to AR2G biosensors, ADAM10 at 500 and 166 nM, global fit
T2 construct: The source and catalogue number are printed for the phage display selections only; also called purified human ADAM10; Disintegrin and metalloproteinase domain-containing protein 10
T2 sequence (looked up): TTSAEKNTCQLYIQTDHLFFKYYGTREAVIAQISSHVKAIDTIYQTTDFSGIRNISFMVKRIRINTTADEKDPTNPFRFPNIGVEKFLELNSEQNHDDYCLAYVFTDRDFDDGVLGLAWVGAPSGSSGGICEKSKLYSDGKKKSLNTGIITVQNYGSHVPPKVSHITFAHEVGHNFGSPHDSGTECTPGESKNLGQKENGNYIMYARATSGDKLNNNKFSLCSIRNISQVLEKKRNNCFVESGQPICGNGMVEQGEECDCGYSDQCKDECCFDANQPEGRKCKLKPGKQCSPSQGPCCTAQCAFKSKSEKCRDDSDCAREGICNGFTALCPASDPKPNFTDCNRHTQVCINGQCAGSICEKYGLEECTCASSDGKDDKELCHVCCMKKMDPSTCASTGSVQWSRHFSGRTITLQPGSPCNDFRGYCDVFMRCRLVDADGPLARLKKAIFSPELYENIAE
Experimental: (§3) BLI sensorgrams for scFv-B2 (A), scFv-B7 (B), and scFv-B9 (C) show real-time binding curves in nanometers of optical thickness versus time (sec). […] A global best fit (solid red line) for each curve was calculated by ForteBio Data Anaylsis 7.1 software and used to determine the kinetic parameters in Table 5.
(§4) Biolayer interferometry was performed with an Octet RED384 instrument (ForteBio). The initial kinetics with unlabeled scFv was performed through coupling to AR2G biosensors per manufacturer instructions (ForteBio). These biosensors were then dipped into ADAM10 (500 nM and 166 nM) to generate the association curves, after which the sensors were moved into buffer alone to generate the corresponding dissociation curves. ForteBio Data Analysis 7.0 software was used for global curve fitting to generate the kinetic data. The kinetic analysis for biotin-conjugated scFvs was performed similarly, except that streptavidin biosensors (ForteBio) were used for immobilization, along with three ADAM10 concentrations (1000 nM, 500 nM, 166 nM). An equal loading (i.e. optical thickness) of the biosensors was performed in both kinetic experiments.

[4] = molecular target: T2, recombinant human ADAM10 (Biomatik, …); test: phage ELISA, ADAM10 signal over BSA signal; underrepresentation because OD was above the detectable limit
Experimental: as §1, §2

[5] = molecular target: T2, recombinant human ADAM10 (Biomatik, …); test: phage ELISA, ADAM10 signal over BSA signal
Experimental: as §1, §2

[6] = molecular target: T2, recombinant human ADAM10 (Biomatik, …); test: BLI (Octet RED384), biotin-labeled scFv on streptavidin biosensors, ADAM10 at 1000, 500 and 166 nM, global fit
Experimental: as §3, with “biotin-scFv-B2” for “scFv-B2”, “biotin-scFv-B7” for “scFv-B7”, “biotin-scFv-B9” for “scFv-B9”, “6.” for “5.”
as §4

T1 sequence (P02769 25-607 limits assumed): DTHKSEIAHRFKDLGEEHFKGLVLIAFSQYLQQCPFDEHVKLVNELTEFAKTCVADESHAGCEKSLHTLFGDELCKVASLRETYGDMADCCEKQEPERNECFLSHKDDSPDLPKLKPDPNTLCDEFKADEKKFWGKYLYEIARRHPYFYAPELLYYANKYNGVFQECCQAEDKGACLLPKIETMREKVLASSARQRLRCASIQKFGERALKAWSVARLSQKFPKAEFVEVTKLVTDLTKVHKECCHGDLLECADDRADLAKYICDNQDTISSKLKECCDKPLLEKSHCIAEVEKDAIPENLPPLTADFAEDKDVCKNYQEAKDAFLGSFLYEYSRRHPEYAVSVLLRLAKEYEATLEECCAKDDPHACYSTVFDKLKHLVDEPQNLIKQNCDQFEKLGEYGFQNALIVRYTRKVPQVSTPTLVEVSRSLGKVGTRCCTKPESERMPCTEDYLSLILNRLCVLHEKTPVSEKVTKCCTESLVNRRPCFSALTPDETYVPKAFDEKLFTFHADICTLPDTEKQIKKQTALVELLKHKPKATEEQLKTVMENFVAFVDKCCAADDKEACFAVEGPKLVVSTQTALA

| Binder | Absorbance at O.D. 450 nm [1] [OD 450 nm] | Absorbance at O.D. 450 nm [2] [OD 450 nm] | Kd [3] [nM] | koff [3] [s⁻¹] | kon [3] [M⁻¹ s⁻¹] | Average fold signal over background [4] [fold] | Average fold signal over background [5] [fold] | Kd [6] [nM] | koff [6] [s⁻¹] | kon [6] [M⁻¹ s⁻¹] |
| --- | --- | --- | --- | --- | --- | --- | --- | --- | --- | --- |
| scFv-B2 (scFv, Synthetic human scFv, order VL (IgKV1-16 framework) - (G3S)4 linker - VH (IgHV3-30 framework); Expressed in E. coli BL-21 and purified by protein L chromatography) scFv: SDIQMTQSPSSLSASVGDRVTITCRASQGISNYLAWYQQKPGKAPKLLIYAASSLQSGVPSRFSGSRSGTDFTLTISSLQPEDFATYYCQQSYYLPLTFGQGTKVEIKGGGSGGGSGGGSGGGSEVQLVESGGGLVQPGGSLRLSCAASGFTFSSYGMHWVRQAPGKGLEWVAVISYDGSNKYYADSVKGRFTISRDNSKNTLYLQMNSLRAEDTAVYYCARWPAHFSHSHSSYYYYGFDVWGQGTLVTVSS | 0.079 | 0.096 | 14.6 | 0.000187 | 12800 | > 45.7 |  |  |  |  |
| scFv-B7 (scFv, Synthetic human scFv, order VL (IgKV1-16 framework) - (G3S)4 linker - VH (IgHV3-30 framework); Expressed in E. coli BL-21 and purified by protein L chromatography) scFv: SDIQMTQSPSSLSASVGDRVTITCRASQGISNYLAWYQQKPGKAPKLLIYAASSLQSGVPSRFSGSRSGTDFTLTISSLQPEDFATYYCQQVSSWPLTFGQGTKVEIKGGGSGGGSGGGSGGGSEVQLVESGGGLVQPGGSLRLSCAASGFTFSSYGMHWVRQAPGKGLEWVAVISYDGSNKYYADSVKGRFTISRDNSKNTLYLQMNSLRAEDTAVYYCARYPPHGFDYWGQGTLVTVSS | 0.086 | 0.084 | 7.52 | 9.3e-05 | 12400 |  | 37 |  |  |  |
| scFv-B9 (scFv, Synthetic human scFv, order VL (IgKV1-16 framework) - (G3S)4 linker - VH (IgHV3-30 framework); Expressed in E. coli BL-21 and purified by protein L chromatography) scFv: SDIQMTQSPSSLSASVGDRVTITCRASQGISNYLAWYQQKPGKAPKLLIYAASSLQSGVPSRFSGSRSGTDFTLTISSLQPEDFATYYCQQLYHPPLTFGQGTKVEIKGGGSGGGSGGGSGGGSEVQLVESGGGLVQPGGSLRLSCAASGFTFSSYGMHWVRQAPGKGLEWVAVISYDGSNKYYADSVKGRFTISRDNSKNTLYLQMNSLRAEDTAVYYCARYSPYHYSHSVSYYYYGFDVWGQGTLVTVSS | 0.082 | 0.075 | 9.32 | 0.000115 | 12400 |  | 42.1 |  |  |  |
| biotin-scFv-B2 (scFv, covalently labeled with biotin by N-hydroxysuccinamide amine coupling (EZ-link NHS biotin); labeled residues not stated, held on streptavidin biosensors in the BLI experiments; also called biotin-labeled scFv-B2) scFv: SDIQMTQSPSSLSASVGDRVTITCRASQGISNYLAWYQQKPGKAPKLLIYAASSLQSGVPSRFSGSRSGTDFTLTISSLQPEDFATYYCQQSYYLPLTFGQGTKVEIKGGGSGGGSGGGSGGGSEVQLVESGGGLVQPGGSLRLSCAASGFTFSSYGMHWVRQAPGKGLEWVAVISYDGSNKYYADSVKGRFTISRDNSKNTLYLQMNSLRAEDTAVYYCARWPAHFSHSHSSYYYYGFDVWGQGTLVTVSS |  |  |  |  |  |  |  | 22 | 0.00103 | 46800 |
| biotin-scFv-B7 (scFv, covalently labeled with biotin by N-hydroxysuccinamide amine coupling (EZ-link NHS biotin); labeled residues not stated, held on streptavidin biosensors in the BLI experiments; also called biotin-labeled scFv-B7) scFv: SDIQMTQSPSSLSASVGDRVTITCRASQGISNYLAWYQQKPGKAPKLLIYAASSLQSGVPSRFSGSRSGTDFTLTISSLQPEDFATYYCQQVSSWPLTFGQGTKVEIKGGGSGGGSGGGSGGGSEVQLVESGGGLVQPGGSLRLSCAASGFTFSSYGMHWVRQAPGKGLEWVAVISYDGSNKYYADSVKGRFTISRDNSKNTLYLQMNSLRAEDTAVYYCARYPPHGFDYWGQGTLVTVSS |  |  |  |  |  |  |  | 21 | 0.00109 | 51900 |
| biotin-scFv-B9 (scFv, covalently labeled with biotin by N-hydroxysuccinamide amine coupling (EZ-link NHS biotin); labeled residues not stated, held on streptavidin biosensors in the BLI experiments; also called biotin-labeled scFv-B9) scFv: SDIQMTQSPSSLSASVGDRVTITCRASQGISNYLAWYQQKPGKAPKLLIYAASSLQSGVPSRFSGSRSGTDFTLTISSLQPEDFATYYCQQLYHPPLTFGQGTKVEIKGGGSGGGSGGGSGGGSEVQLVESGGGLVQPGGSLRLSCAASGFTFSSYGMHWVRQAPGKGLEWVAVISYDGSNKYYADSVKGRFTISRDNSKNTLYLQMNSLRAEDTAVYYCARYSPYHYSHSVSYYYYGFDVWGQGTLVTVSS |  |  |  |  |  |  |  | 23.1 | 0.00117 | 50800 |
